# Measurements reported in the supplement of paper PMC10065799, “High-throughput profiling of sequence recognition by tyrosine kinases and SH2 domains using bacterial peptide display” (eLife, 2023).
# Molecular target: EPHB1 (UniProt P54762)
# Assay: phosphorylation enrichment, bacterial display (enrichment ratio); higher = better substrate or ligand; peptides without Tyr show the background
# 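Note: 11-residue human phosphosite peptides and single-mutation variants displayed on the E. coli surface, counted by deep sequencing, each peptide's frequency after selection divided by its frequency in the unselected input library; frequency after pTyr selection over input frequency; kinase dosed for 20-30% of maximal phosphorylation in three min.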
# Sequence of EPHB1 (P54762 whole entry, looked up): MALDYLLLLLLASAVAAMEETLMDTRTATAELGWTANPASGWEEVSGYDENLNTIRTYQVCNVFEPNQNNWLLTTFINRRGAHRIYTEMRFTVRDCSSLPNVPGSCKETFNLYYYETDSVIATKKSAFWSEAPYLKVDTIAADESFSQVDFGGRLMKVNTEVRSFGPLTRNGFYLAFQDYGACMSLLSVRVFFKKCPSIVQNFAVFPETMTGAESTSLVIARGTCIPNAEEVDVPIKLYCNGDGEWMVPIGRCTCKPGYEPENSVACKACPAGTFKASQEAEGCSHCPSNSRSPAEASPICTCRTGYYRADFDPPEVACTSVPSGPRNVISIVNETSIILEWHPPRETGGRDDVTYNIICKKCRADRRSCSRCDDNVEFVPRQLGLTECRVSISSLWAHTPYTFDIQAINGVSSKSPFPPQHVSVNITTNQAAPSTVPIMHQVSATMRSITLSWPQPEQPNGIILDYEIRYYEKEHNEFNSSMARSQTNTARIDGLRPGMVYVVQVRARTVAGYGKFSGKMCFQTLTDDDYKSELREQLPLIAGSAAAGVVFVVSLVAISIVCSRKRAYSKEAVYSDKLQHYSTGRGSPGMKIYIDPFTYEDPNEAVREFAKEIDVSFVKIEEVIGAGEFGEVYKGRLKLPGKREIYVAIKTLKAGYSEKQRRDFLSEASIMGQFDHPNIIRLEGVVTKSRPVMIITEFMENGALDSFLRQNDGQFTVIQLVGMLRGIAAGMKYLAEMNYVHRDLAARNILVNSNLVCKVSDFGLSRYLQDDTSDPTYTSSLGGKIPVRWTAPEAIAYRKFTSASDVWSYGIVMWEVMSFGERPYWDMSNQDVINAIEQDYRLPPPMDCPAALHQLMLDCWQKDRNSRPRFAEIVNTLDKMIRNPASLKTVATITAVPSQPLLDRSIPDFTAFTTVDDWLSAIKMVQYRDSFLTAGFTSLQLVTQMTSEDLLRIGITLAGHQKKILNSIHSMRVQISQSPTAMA
row,Sequence,phosphorylation enrichment
1,RPFRPYIIRGM [LRP5_Y1531_YF],0.633
2,RHSGSYLVTSV [APC_Y2838],0.505
3,KAWTIYRPEDS [ZBP1_Y165],0.461
4,SRVTQYERNFE [SNX1_Y463_D466N],0.421
5,PQGVRYIFTID [DCX_Y103_YF],0.587
6,AQQPIYIRVEG [NLRP7_Y318_V319I],1.3
7,NVDGKYSFLKV [GRM3_Y478_G475D_YF],0.394
8,LRGEDCGFSVD [PRKCI_Y430_Y430C],2.18
9,VDASYCGGRGV [ANTXR2_Y381_Y381C],0.373
10,VTPVMYTYDEY [COL10A1_Y623_G618V],0.633
11,IRDLKYTIENP [SND1_Y178],0.521
12,AVSEGYKDFRA [CDA_Y79],0.386
13,GHLYACDWISI [BEST1_Y227_Y227C],1.3
14,LKYAIYFEVRE [LAMA2_Y1258_A1261V],1.67
15,PRARTYCYKQE [KLHDC9_Y175_S171R],0.467
16,DTKDDYSALSV [IL17RB_Y457_N458S],0.627
17,ADEEEYEIIAA [FEStide_E_2014],0.662

row,Sequence,phosphorylation enrichment
1,KHCEDYVFSYN [DSC1_Y846_C848F],0.855
2,TDLAFYLVREG [ASL_Y376_K380E_YF],0.709
3,SLQSEYVHYGG [CDC14A_Y591],0.854
4,CQAHGYFCQPI [STK11_Y156_L160P],0.35
5,NHQFDYTFHWT [CSNK1A1_Y294_D297H_YF],1.55
6,EEVKAYLDFGE [CHAC2_Y78_R82G],0.719
7,ENAGYYFRVSA,0.568
8,NTPNTYLRVNV [ADD2_Y440],0.412
9,ALIKAYVKAVA [SMN1_Y43_D44V],0.65
10,VMTLDYSKTVV [SETD2_Y770_V768L],0.571
11,GINDDYGQLKN [NBN_Y679],0.364
12,SLQSEYVHFGG [CDC14A_Y591_YF],1.09
13,KAIMTYVSSFY [ACTN4_Y260],0.644
14,YSNKLYYQLEQ [PDPR_Y109],3.14
15,SDVDLYQVRIA [PSMD9_Y70_T74I],0.594
16,LENSTYQFIHV [CRB1_Y760_R764H_YF],9.73

# Molecular target: Hck (UniProt P08631)
# Assay: as above
# Sequence of Hck (P08631 whole entry, looked up): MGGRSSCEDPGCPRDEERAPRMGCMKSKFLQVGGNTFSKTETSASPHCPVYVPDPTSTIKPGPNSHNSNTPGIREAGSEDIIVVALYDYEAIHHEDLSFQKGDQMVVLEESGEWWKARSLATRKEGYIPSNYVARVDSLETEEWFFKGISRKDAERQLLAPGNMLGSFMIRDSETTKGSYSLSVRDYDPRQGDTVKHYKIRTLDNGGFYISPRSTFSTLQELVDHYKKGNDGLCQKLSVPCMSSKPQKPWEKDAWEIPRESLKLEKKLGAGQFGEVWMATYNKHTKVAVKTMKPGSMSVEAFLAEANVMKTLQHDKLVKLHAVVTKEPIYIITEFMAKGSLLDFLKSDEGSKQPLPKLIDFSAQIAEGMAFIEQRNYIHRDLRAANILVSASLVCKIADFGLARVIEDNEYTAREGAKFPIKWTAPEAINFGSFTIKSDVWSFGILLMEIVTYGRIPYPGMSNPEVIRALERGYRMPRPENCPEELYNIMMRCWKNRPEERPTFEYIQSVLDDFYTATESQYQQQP
row,Sequence,phosphorylation enrichment
1,RPFRPYIIRGM [LRP5_Y1531_YF],0.655
2,RHSGSYLVTSV [APC_Y2838],0.616
3,KAWTIYRPEDS [ZBP1_Y165],0.482
4,SRVTQYERNFE [SNX1_Y463_D466N],0.435
5,PQGVRYIFTID [DCX_Y103_YF],0.714
6,AQQPIYIRVEG [NLRP7_Y318_V319I],0.733
7,NVDGKYSFLKV [GRM3_Y478_G475D_YF],0.431
8,LRGEDCGFSVD [PRKCI_Y430_Y430C],0.987
9,VDASYCGGRGV [ANTXR2_Y381_Y381C],0.342
10,VTPVMYTYDEY [COL10A1_Y623_G618V],0.932
11,IRDLKYTIENP [SND1_Y178],0.507
12,AVSEGYKDFRA [CDA_Y79],0.452
13,GHLYACDWISI [BEST1_Y227_Y227C],0.846
14,LKYAIYFEVRE [LAMA2_Y1258_A1261V],0.827
15,PRARTYCYKQE [KLHDC9_Y175_S171R],0.435
16,DTKDDYSALSV [IL17RB_Y457_N458S],0.661
17,ADEEEYEIIAA [FEStide_E_2014],0.654

row,Sequence,phosphorylation enrichment
1,KHCEDYVFSYN [DSC1_Y846_C848F],0.521
2,TDLAFYLVREG [ASL_Y376_K380E_YF],0.546
3,SLQSEYVHYGG [CDC14A_Y591],0.927
4,CQAHGYFCQPI [STK11_Y156_L160P],0.357
5,NHQFDYTFHWT [CSNK1A1_Y294_D297H_YF],0.47
6,EEVKAYLDFGE [CHAC2_Y78_R82G],0.564
7,ENAGYYFRVSA,0.476
8,NTPNTYLRVNV [ADD2_Y440],0.428
9,ALIKAYVKAVA [SMN1_Y43_D44V],0.464
10,VMTLDYSKTVV [SETD2_Y770_V768L],0.439
11,GINDDYGQLKN [NBN_Y679],0.874
12,SLQSEYVHFGG [CDC14A_Y591_YF],0.596
13,KAIMTYVSSFY [ACTN4_Y260],0.554
14,YSNKLYYQLEQ [PDPR_Y109],2.27
15,SDVDLYQVRIA [PSMD9_Y70_T74I],4.07
16,LENSTYQFIHV [CRB1_Y760_R764H_YF],8.87

# Molecular target: Fyn (UniProt P06241)
# Assay: as above
# Sequence of Fyn (P06241 whole entry, looked up): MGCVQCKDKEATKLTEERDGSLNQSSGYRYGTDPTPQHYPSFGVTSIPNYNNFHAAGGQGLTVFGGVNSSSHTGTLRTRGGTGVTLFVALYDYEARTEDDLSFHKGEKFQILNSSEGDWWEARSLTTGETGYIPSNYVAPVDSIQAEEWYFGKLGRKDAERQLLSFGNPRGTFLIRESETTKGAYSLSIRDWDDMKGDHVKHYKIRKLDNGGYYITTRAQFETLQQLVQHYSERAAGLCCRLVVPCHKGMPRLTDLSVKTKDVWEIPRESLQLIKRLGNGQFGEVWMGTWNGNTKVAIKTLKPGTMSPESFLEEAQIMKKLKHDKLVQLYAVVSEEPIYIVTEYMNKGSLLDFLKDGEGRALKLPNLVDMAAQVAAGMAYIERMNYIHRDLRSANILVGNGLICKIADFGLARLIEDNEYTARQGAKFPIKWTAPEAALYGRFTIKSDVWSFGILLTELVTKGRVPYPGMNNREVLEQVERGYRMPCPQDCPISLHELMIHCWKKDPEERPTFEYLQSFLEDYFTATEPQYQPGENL
row,Sequence,phosphorylation enrichment
1,RPFRPYIIRGM [LRP5_Y1531_YF],0.611
2,RHSGSYLVTSV [APC_Y2838],0.431
3,KAWTIYRPEDS [ZBP1_Y165],0.494
4,SRVTQYERNFE [SNX1_Y463_D466N],0.45
5,PQGVRYIFTID [DCX_Y103_YF],0.617
6,AQQPIYIRVEG [NLRP7_Y318_V319I],0.525
7,NVDGKYSFLKV [GRM3_Y478_G475D_YF],0.383
8,LRGEDCGFSVD [PRKCI_Y430_Y430C],0.631
9,VDASYCGGRGV [ANTXR2_Y381_Y381C],0.676
10,VTPVMYTYDEY [COL10A1_Y623_G618V],1.61
11,IRDLKYTIENP [SND1_Y178],0.456
12,AVSEGYKDFRA [CDA_Y79],0.441
13,GHLYACDWISI [BEST1_Y227_Y227C],1.06
14,LKYAIYFEVRE [LAMA2_Y1258_A1261V],1.17
15,PRARTYCYKQE [KLHDC9_Y175_S171R],0.527
16,DTKDDYSALSV [IL17RB_Y457_N458S],0.56
17,ADEEEYEIIAA [FEStide_E_2014],0.619

row,Sequence,phosphorylation enrichment
1,KHCEDYVFSYN [DSC1_Y846_C848F],0.576
2,TDLAFYLVREG [ASL_Y376_K380E_YF],0.437
3,SLQSEYVHYGG [CDC14A_Y591],0.69
4,CQAHGYFCQPI [STK11_Y156_L160P],0.329
5,NHQFDYTFHWT [CSNK1A1_Y294_D297H_YF],0.507
6,EEVKAYLDFGE [CHAC2_Y78_R82G],0.448
7,ENAGYYFRVSA,0.435
8,NTPNTYLRVNV [ADD2_Y440],0.433
9,ALIKAYVKAVA [SMN1_Y43_D44V],0.462
10,VMTLDYSKTVV [SETD2_Y770_V768L],0.37
11,GINDDYGQLKN [NBN_Y679],0.528
12,SLQSEYVHFGG [CDC14A_Y591_YF],0.783
13,KAIMTYVSSFY [ACTN4_Y260],0.536
14,YSNKLYYQLEQ [PDPR_Y109],2.08
15,SDVDLYQVRIA [PSMD9_Y70_T74I],1.86
16,LENSTYQFIHV [CRB1_Y760_R764H_YF],3.24

# Test system: Fer (mouse)
# Assay: as above
row,Sequence,phosphorylation enrichment
1,RPFRPYIIRGM [LRP5_Y1531_YF],0.456
2,RHSGSYLVTSV [APC_Y2838],0.51
3,KAWTIYRPEDS [ZBP1_Y165],0.449
4,SRVTQYERNFE [SNX1_Y463_D466N],0.438
5,PQGVRYIFTID [DCX_Y103_YF],0.826
6,AQQPIYIRVEG [NLRP7_Y318_V319I],0.588
7,NVDGKYSFLKV [GRM3_Y478_G475D_YF],0.48
8,LRGEDCGFSVD [PRKCI_Y430_Y430C],0.886
9,VDASYCGGRGV [ANTXR2_Y381_Y381C],0.48
10,VTPVMYTYDEY [COL10A1_Y623_G618V],0.542
11,IRDLKYTIENP [SND1_Y178],0.541
12,AVSEGYKDFRA [CDA_Y79],0.341
13,GHLYACDWISI [BEST1_Y227_Y227C],0.677
14,LKYAIYFEVRE [LAMA2_Y1258_A1261V],0.929
15,PRARTYCYKQE [KLHDC9_Y175_S171R],0.716
16,DTKDDYSALSV [IL17RB_Y457_N458S],0.642
17,ADEEEYEIIAA [FEStide_E_2014],0.73

row,Sequence,phosphorylation enrichment
1,KHCEDYVFSYN [DSC1_Y846_C848F],0.511
2,TDLAFYLVREG [ASL_Y376_K380E_YF],0.555
3,SLQSEYVHYGG [CDC14A_Y591],0.441
4,CQAHGYFCQPI [STK11_Y156_L160P],0.362
5,NHQFDYTFHWT [CSNK1A1_Y294_D297H_YF],5.97
6,EEVKAYLDFGE [CHAC2_Y78_R82G],0.558
7,ENAGYYFRVSA,0.456
8,NTPNTYLRVNV [ADD2_Y440],0.38
9,ALIKAYVKAVA [SMN1_Y43_D44V],0.445
10,VMTLDYSKTVV [SETD2_Y770_V768L],0.449
11,GINDDYGQLKN [NBN_Y679],0.474
12,SLQSEYVHFGG [CDC14A_Y591_YF],0.442
13,KAIMTYVSSFY [ACTN4_Y260],0.505
14,YSNKLYYQLEQ [PDPR_Y109],0.81
15,SDVDLYQVRIA [PSMD9_Y70_T74I],0.756
16,LENSTYQFIHV [CRB1_Y760_R764H_YF],24.8
